Consider 8 substances from publication PMC10115415.

In general, Kd refers to the free concentration of one partner at which half of the binding sites on the other are occupied at equilibrium, for simple one-to-one binding.

Data set [1] concerns the target MLL1 third plant homeodomain (PHD3) (UniProt Q03164). Kind of data set: ITC; conditions not given (table S1, fig. S2). (In general: Isothermal titration calorimetry measures the heat released or taken up as one component is titrated into another.)
Data set [2] has as its target Cyp33 RRM∆α/MLL1 PHD3 complex (UniProt Q9UNP9). Nature of the data set: ITC; conditions not given (table S1, fig. S2).
Another data set has as its system H3(1-13)K4me3 peptide. Nature of the data set: ITC. To be noted: NMR titrations: 20 mM KHPO4 pH 7, 40 mM KCl, 1 mM DTT, 289.15 K as printed (table S2 says 298.15 K for Kd); structures of complexes: 40 mM KCl, 20 mM KH2PO4 pH ….
The target of data set [3] is Histone H3 H3K4me3 (Homo sapiens) (UniProt P68431). Conditions: cited from earlier work.

MLL1 third plant homeodomain (PHD3), sequence (Q03164 1564-1627): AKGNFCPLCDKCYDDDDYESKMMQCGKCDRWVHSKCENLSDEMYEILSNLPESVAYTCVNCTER
MLL1 PHD3-BRD, sequence (Q03164 1566-1784): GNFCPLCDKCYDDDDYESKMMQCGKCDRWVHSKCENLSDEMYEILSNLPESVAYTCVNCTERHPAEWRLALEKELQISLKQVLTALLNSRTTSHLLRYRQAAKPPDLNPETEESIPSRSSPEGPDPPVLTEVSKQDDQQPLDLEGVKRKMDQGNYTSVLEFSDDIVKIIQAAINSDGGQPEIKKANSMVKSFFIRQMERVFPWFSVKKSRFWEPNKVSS

On to Cyp33 KRK83-88A triple mutant, for which the Kd in data set [1] was determined as 7 µM.

For the substance Cyp33 K83A mutant, the Kd in data set [1] worked out at 7 µM.

In the case of “Histone H3 lysine N6-trimethylated peptide (H3K4me3) (from UniProt P68431 2-14)”, in data set [2], the Kd was found to be 24 µM.

The substance “Cyp33 W101A, L102A, F105A triple mutant (Cyp33-WLF)” showed a Kd in data set [1] of 7 µM.

On to “UAAUGUUAAUGUUAAUGUUAAUGU [4x UAAUGU repeat RNA]”, for which the Kd in the data set on H3(1-13)K4me3 peptide stood at 30 µM.

Regarding Cyp33 RK86-88A double mutant, the Kd in data set [1] is 7 µM.

As to “Cyp33 RNA recognition motif (RRM) with the C-terminal extension (α3 helix) (from UniProt Q9UNP9 1-114) (domain or fragment)”, the Kd in data set [1] came to 4.6 µM.

With MLL1 PHD3-BRD (from UniProt Q03164), the dissociation constant Kd in data set [3] was 4 µM.
